± gives the standard deviation of the averaged measurements.

The test system of one series is MCF7. In words: percentage of EdU-negative (G0-arrested) nuclei per well, 72 h; higher = more G0 arrest. Particulars: reference: sequence is the full UniProt precursor, the tested protein was the secreted form or ectodomain.
Another series relates to hTERT-HMEC. Described as above. Particulars: reference: sequence is the full UniProt precursor, the tested protein was the secreted form or ectodomain.
Where [1] appears, read: protein concentration 0.02657 µM.
[2] abbreviates: protein concentration 0.2657 µM.
The mark [3] stands for this setting: protein concentration 0.027265 µM.
[4] abbreviates: protein concentration 0.27265 µM.
Setting [5] is: protein concentration 0.0197775 µM.
Where [6] appears, read: protein concentration 0.197775 µM.
[7] abbreviates: protein concentration 0.0225 µM.
Where [8] appears, read: protein concentration 0.03125 µM.
[9] abbreviates: protein concentration 0.3125 µM.
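Note: secreted proteins added to cultured cells, EdU pulse at the end, nuclei found by Hoechst imaging, EdU status from nuclear versus surrounding ring intensity ratio, PBS as neutral control.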

Chain of Q8IWL1 (chain, as listed by the source): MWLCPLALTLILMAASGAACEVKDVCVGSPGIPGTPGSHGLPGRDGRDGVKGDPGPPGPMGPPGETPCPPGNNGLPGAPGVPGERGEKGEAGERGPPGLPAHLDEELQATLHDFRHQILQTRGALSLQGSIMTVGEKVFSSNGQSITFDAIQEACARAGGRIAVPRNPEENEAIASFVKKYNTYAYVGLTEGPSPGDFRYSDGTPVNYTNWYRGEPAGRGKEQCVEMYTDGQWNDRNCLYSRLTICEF

With “MRALLLLGFLLVSLESTLSIPPWEAPKEHKYKAEEHTVVLTVTGEPCHFPFQYHRQLYHKCTHKGRPGPQPWCATTPNFDQDQRWGYCLEPKKVKDHCSKHSPCQKGGTCVNMPSGPHCLCPQHLTGNHCQKEKCFEPQLLRFFHKNEIWYRTEQAAVARCQCKGPDAHCQRLASQACRTNPCLHGGRCLEVEGHRLCHCPVGYTGAFCDVDTKASCYDGRGLSYRGLARTTLSGAPCQPWASEATYRNVTAEQARNWGLGGHAFCRNPDNDIRPWCFVLNRDRLSWEYCDLAQCQTPTQAAPPTPVSPRLHVPLMPAQPAPPKPQPTTRTPPQSQTPGALPAKREQPPSLTRNGPLSCGQRLRKSLSSMTRVVGGLVALRGAHPYIAALYWGHSFCAGSLIAPCWVLTAAHCLQDRPAPEDLTVVLGQERRNHSCEPCQTLAVRSYRLHEAFSPVSYQHDLALLRLQEDADGSCALLSPYVQPVCLPSGAARPSETTLCQVAGWGHQFEGAEEYASFLQEAQVPFLSLERCSAPDVHGSSILPGMLCAGFLEGGTDACQGDSGGPLVCEDQAAERRLTLQGIISWGSGCGDRNKPGVYTDVAYYLAWIREHTVS”, the “percentage of EdU-negative” value was determined as 27.06 ± 0.031% in the series on MCF7 (protein concentration 0.009 µM), 27.973 ± 0.024% in the series on MCF7 (protein concentration 0.09 µM), 5.23 ± 0.56% in the series on hTERT-HMEC (protein concentration 0.009 µM) and 49.1 ± 0.6% with hTERT-HMEC (protein concentration 0.09 µM).
For the substance “MFTIKLLLFIVPLVISSRIDQDNSSFDSLSPEPKSRFAMLDDVKILANGLLQLGHGLKDFVHKTKGQINDIFQKLNIFDQSFYDLSLQTSEIKEEEKELRRTTYKLQVKNEEVKNMSLELNSKLESLLEEKILLQQKVKYLEEQLTNLIQNQPETPEHPEVTSLKTFVEKQDNSIKDLLQTVEDQYKQLNQQHSQIKEIENQLRRTSIQEPTEISLSSKPRAPRTTPFLQLNEIRNVKHDGIPAECTTIYNRGEHTSGMYAIRPSNSQVFHVYCDVISGSPWTLIQHRIDGSQNFNETWENYKYGFGRLDGEFWLGLEKIYSIVKQSNYVLRIELEDWKDNKHYIEYSFYLGNHETNYTLHLVAITGNVPNAIPENKDLVFSTWDHKAKGHFNCPEGYSGGWWWHDECGENNLNGKYNKPRAKSKPERRRGLSWKSQNGRLYSIKSTKMLIHPTDSESFE [Q9Y5C1]”, the “percentage of EdU-negative” value stood at 25.5 ± 1.9% in the series with MCF7 (setting [1]), 25.9 ± 2.1% with MCF7 (setting [2]), 4.63 ± 0.83% in the series on hTERT-HMEC (setting [1]) and 6.34 ± 0.5% in the series with hTERT-HMEC (setting [2]).
Turning to “MPDTMLPACFLGLLAFSSACYFQNCPRGGKRAMSDLELRQCLPCGPGGKGRCFGPSICCADELGCFVGTAEALRCQEENYLPSPCQSGQKACGSGGRCAAFGVCCNDESCVTEPECREGFHRRARASDRSNATQLDGPAGALLLRLVQLAGAPEPFEPAQPDAY”, the “percentage of EdU-negative” value with MCF7 (setting [3]) worked out at 24 ± 0.36%; in the series with MCF7 (setting [4]), 24.4 ± 0.13%; in the series with hTERT-HMEC (setting [3]) it was 5.39 ± 0.55%; in the series on hTERT-HMEC (setting [4]) it was 5.52 ± 1.1%.
As for “MALLWGLLVLSWSCLQGPCSVFSPVSAMEPLGRQLTSGPNQEQVSPLTLLKLGNQEPGGQTALKSPPGVCSRDPTPEQTHRLARAMMAFTADLFSLVAQTSTCPNLILSPLSVALALSHLALGAQNHTLQRLQQVLHAGSGPCLPHLLSRLCQDLGPGAFRLAARMYLQKGFPIKEDFLEQSEQLFGAKPVSLTGKQEDDLANINQWVKEATEGKIQEFLSGLPEDTVLLLLNAIHFQGFWRNKFDPSLTQRDSFHLDEQFTVPVEMMQARTYPLRWFLLEQPEIQVAHFPFKNNMSFVVLVPTHFEWNVSQVLANLSWDTLHPPLVWERPTKVRLPKLYLKHQMDLVATLSQLGLQELFQAPDLRGISEQSLVVSGVQHQSTLELSEVGVEAAAATSIAMSRMSLSSFSVNRPFLFFIFEDTTGLPLFVGSVRNPNPSAPRELKEQQDSPGNKDFLQSLKGFPRGDKLFGPDLKLVPPMEEDYPQFGSPK”, the “percentage of EdU-negative” value with MCF7 (setting [5]) came to 24.1 ± 0.71%; in the series with MCF7 (setting [6]), 29.1 ± 1.3%; with hTERT-HMEC (setting [5]), 4.44 ± 1.1%; in the series on hTERT-HMEC (setting [6]), 10.5 ± 1%.
On to “MKLKLKNVFLAYFLVSIAGLLYALVQLGQPCDCLPPLRAAAEQLRQKDLRISQLQAELRRPPPAPAQPPEPEALPTIYVVTPTYARLVQKAELVRLSQTLSLVPRLHWLLVEDAEGPTPLVSGLLAASGLLFTHLVVLTPKAQRLREGEPGWVHPRGVEQRNKALDWLRGRGGAVGGEKDPPPPGTQGVVYFADDDNTYSRELFEEMRWTRGVSVWPVGLVGGLRFEGPQVQDGRVVGFHTAWEPSRPFPVDMAGFAVALPLLLDKPNAQFDSTAPRGHLESSLLSHLVDPKDLEPRAANCTRVLVWHTRTEKPKMKQEEQLQRQGRGSDPAIEV”, for which the “percentage of EdU-negative” value in the series on MCF7 (setting [7]) turned out to be 24 ± 0.88%; in the series on MCF7 (protein concentration 0.225 µM), 27.1 ± 1.6%; in the series on hTERT-HMEC (setting [7]) it was 6.2 ± 0.23%; in the series with hTERT-HMEC (protein concentration 0.225 µM), 9.73 ± 0.47%.
On the same counts, the results for Q8IWL1 are 28.1 ± 0.35%, 26.4 ± 0.85%, 5.29 ± 1.1% and 6.43 ± 1.3%.
“MKTLQFFFLFCCWKAICCNSCELTNITIAIEKEECRFCISINTTWCAGYCYTRDLVYKDPARPKIQKTCTFKELVYETVRVPGCAHHADSLYTYPVATQCHCGKCDSDSTDCTVRGLGPSYCSFGEMKE”: the “percentage of EdU-negative” value was 25.3 ± 0.9% in the series with MCF7 (setting [8]), 26.6 ± 1.5% with MCF7 (setting [9]), 5.26 ± 0.36% in the series with hTERT-HMEC (setting [8]) and 4.61 ± 0.34% in the series on hTERT-HMEC (setting [9]).

The values are drawn from the supplement of paper PMC11316812.
